Assay results: article PMC9584953
Changes are numbered by the printed parent chain.

Assays:
Test in all cases: EMSA
Details in all cases: EMSA: 50 mM Tris-HCl pH 7.5, 50 mM KCl, 5 mM CaCl2, 5% glycerol, 0.0025% NP-40, 0.8 ug poly(dI-dC), room temperature 30 min
[1] = tested on: T1, OmpR D55A D55A (Salmonella (strain not given in material)), ORF:d8521a76
T1 sequence: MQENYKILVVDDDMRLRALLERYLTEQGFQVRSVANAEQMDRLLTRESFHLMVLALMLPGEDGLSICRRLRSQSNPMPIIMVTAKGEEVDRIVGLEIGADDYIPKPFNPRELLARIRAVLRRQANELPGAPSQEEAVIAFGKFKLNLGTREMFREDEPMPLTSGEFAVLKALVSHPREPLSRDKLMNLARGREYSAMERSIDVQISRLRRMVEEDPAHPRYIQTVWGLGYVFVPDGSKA

[2] = tested on: T2, OmpR Y230D Y230D (Salmonella (strain not given in material)), ORF:d8521a76
T2 sequence: T1 sequence with A55D, Y230D

[3] = tested on: T3, OmpR I138D I138D (Salmonella (strain not given in material)), ORF:d8521a76
T3 sequence: T1 sequence with A55D, I138D

[4] = tested on: T4, OmpR R182D R182D (Salmonella (strain not given in material)), ORF:d8521a76
T4 sequence: T1 sequence with A55D, R182D

[5] = tested on: T5, OmpR A136D A136D (Salmonella (strain not given in material)), ORF:d8521a76
T5 sequence: T1 sequence with A55D, A136D

With “CATCTTTCCATTCAAACTAACGTTTCGCTACCGTGAAAGTGCTACAAAGATAAAGATTTGGTTTCAAAAGGAAAT (double strand) [PompF (F2 and F3 OmpR sites)]” the binding [1] was “binds more weakly”, the binding [2] was “binds” and the binding [3] was “binds”. The binding [4] was “binds” and the binding [5] was “binds”.
